Source: patent publication US20240209093A1 (I MAB BIOPHARMA, published 2024)

T1: His-tagged human TIGIT-ECD protein (human, UniProt Q495A1 22-141)
T1 construct: extracellular domain; also called hTIGIT-his
T1 sequence (looked up): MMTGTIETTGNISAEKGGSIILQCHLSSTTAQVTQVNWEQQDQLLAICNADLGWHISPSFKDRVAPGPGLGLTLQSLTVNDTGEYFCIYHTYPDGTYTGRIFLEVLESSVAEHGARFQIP


Key:
Tag1-CD47 = molecular target: T2, Tag1-CD47 (UniProt Q08722 19-139); assay: HTRF CD47/SIRPα binding assay (Cisbio): blocking of Tag2-SIRPa binding to Tag1-CD47; axis numbers -3 to 3 read as log10 of nM
T2 construct: Bought kit reagent
Excerpt: Fluorescence data were read on a PerkinElmer Envision plate reader using laser as light source.

human PD-L1 on cells [1] = molecular target: T3, human PD-L1 on cells (human, UniProt Q9NZQ7 19-290); assay: flow cytometry on RKO cells, which carry both human CD47 and human PD-L1; APC-labelled secondary antibody; signal not resolved between the two arms
T3 construct: whole, on cells; also called Raji cells overexpressing human PD-L1; Raji-PD-L1 cells
Description: (§1) RKO cells are human colon carcinoma cell lines that express endogenous level of human CD47 and human PD-L1 on the surface. RKO cells were incubated with serial diluted anti-CD47/PD-L1 bispecific antibodies, parental CD47 or PD-L1 monospecific antibodies at 4° C. for 30 minutes. Then cells were washed with FACS buffer three times, followed by incubation with APC-labeled secondary antibody at 4° C. for 30 minutes. Then cells were washed with FACS buffer for three times. Binding was measured by flow cytometry.

[2] = molecular target: T1, His-tagged human TIGIT-ECD protein; assay: ELISA on His-tagged human TIGIT
human PD-L1 on cells [3] = molecular target: T3, human PD-L1 on cells; assay: flow cytometry on Raji cells overexpressing human PD-L1, PE-anti-hu IgG [panel C]
Description: Furthermore, binding capability of the anti-PD-L1/TIGIT bsAbs of the present application with cells expressing PD-L1 was analyzed by using Raji-PD-L1 cells. Briefly, 50 μl Raji cells overexpressing human PD-L1 were seeded into 96 well plate with 2*10⁵ cells/well.

human PD-L1-his [4] = molecular target: T4, human PD-L1-his (human, UniProt Q9NZQ7 19-238); assay: ELISA, plate coated with human His-PD-L1, detection goat anti-human IgG Fc HRP [panel B]
T4 construct: also called hPD-L1-his; human His-PD-L1
Excerpt: (§2) Binding of the anti-PD-L1/TIGIT bsAb molecules with human PD-L1 was further analyzed by ELISA.

human PD-L1-his [5] = molecular target: T4, human PD-L1-his; assay: SPR, Biacore, full kinetics, antigen 100-1.5625 nM
human PD-L1 on cells [6] = molecular target: T3, human PD-L1 on cells; assay: flow cytometry on Raji cells overexpressing human PD-L1, PE-anti-hu IgG
Description: Binding capability of the anti-PD-L1 antibody of the present application was further evaluated by using Raji cells overexpressing human PD-L1. Briefly, 50 μl Raji cells overexpressing human PD-L1 were seeded into 96 well plate at a concentration of 2*10⁵ cells/well. […] Then the cells were washed twice by FACS buffer and supplemented with 100 μl PE-anti-hu IgG, followed by incubation on ice for 1 hour. After incubation, the cells in each well were collected and resuspended with 65 μl FACS buffer for analysis by flow cytometry.

human PD-L1-his [7] = molecular target: T4, human PD-L1-his; assay: ELISA, plate coated with human His-PD-L1, detection goat anti-human IgG Fc HRP
Excerpt: Binding properties of the humanized anti-PD-L1 antibody of the present application were first evaluated by ELISA assay.

human PD-L1-his [8] = molecular target: T4, human PD-L1-his; assay: SPR, Biacore T200, antibody captured on protein A chip, hPD-L1-his 6.25-100 nM as analyte
Description: The binding affinity of the PD-L1/TIGIT bsAb to recombinant human his-tagged PD-L1 protein was tested by BIACORE®. […] A series of dilutions of human PD-L1 protein (6.25 nM-100 nM) were injected over captured antibody at a flow rate of 10 μL/min. The antigen was allowed to associate for 180 s and dissociate for 1200 s. All the experiments were carried out on a Biacore T200. Data analysis was carried out using Biacore T200 evaluation software.

human PD-L1 on cells [9] = molecular target: T3, human PD-L1 on cells; assay: flow cytometry on RKO cells (endogenous CD47 and PD-L1), APC-labelled secondary antibody
Description: as §1

human PD-L1-his [10] = molecular target: T4, human PD-L1-his; assay: ELISA, plate coated with human His-PD-L1, detection goat anti-human IgG Fc HRP [panel A]
Excerpt: as §2

T3 sequence (Q9NZQ7 19-290): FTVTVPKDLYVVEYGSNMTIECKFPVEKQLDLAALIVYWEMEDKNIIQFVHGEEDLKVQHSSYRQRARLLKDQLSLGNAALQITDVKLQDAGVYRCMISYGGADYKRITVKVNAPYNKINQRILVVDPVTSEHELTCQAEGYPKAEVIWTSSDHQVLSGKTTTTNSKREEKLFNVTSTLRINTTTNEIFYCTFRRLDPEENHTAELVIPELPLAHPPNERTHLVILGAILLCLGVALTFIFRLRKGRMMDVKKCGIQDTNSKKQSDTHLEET
T4 sequence (Q9NZQ7 19-238 limits assumed): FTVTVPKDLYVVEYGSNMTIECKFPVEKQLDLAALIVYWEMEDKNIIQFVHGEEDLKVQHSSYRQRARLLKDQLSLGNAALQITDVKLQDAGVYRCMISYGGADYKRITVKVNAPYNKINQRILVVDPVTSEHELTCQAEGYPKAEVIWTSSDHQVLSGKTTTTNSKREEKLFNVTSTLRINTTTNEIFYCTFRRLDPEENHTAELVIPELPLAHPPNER
T2 sequence (Q08722 19-139 limits assumed): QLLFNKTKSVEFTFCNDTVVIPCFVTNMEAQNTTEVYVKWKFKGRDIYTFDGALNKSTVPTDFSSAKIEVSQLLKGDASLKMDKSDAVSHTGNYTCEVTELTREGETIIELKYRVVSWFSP

Binder	IC50 (read off the curve) (Tag1-CD47) [nM]	binding result (human PD-L1 on cells [1])	EC50 (read off the curve) (human PD-L1 on cells [3]) [nM]	EC50 (read off the curve) (human PD-L1-his [4]) [nM]	EC50 (read off the curve) (human PD-L1 on cells [6]) [nM]	EC50 (read off the curve) (human PD-L1-his [7]) [nM]	also measured
34C5-L-93VH6-IgG1 (bispecific antibody, Symmetric 'two to two' anti-CD47/PD-L1 bispecific) heavy: not shown light: DIQMTQSPSSLSASVGDRVTITCRASQDISDYLNWYQQKPGKAPKLLIYYISRLHSGVPSRFSGSGSGTDYTLTISSLQPEDFATYYCQQGHTLPWTFGGGTKVEIKGGGGSGGGGSGGGGSGGGGSEVQLVESGGGLVQPGGSLRLSCAASGFTFTFRHYVMGWFRQAPGKEREFVAAISWSGSGSYYADSVKGRFTISRDNSKNTVYLQMNSLRAEDTAVYYCAADMTTRMSQASREYDYWGQGTLVTVSSRTVAAPSVFIFPPSDEQLKSGTASVVCLLNNFYPREAKVQWKVDNALQSGNSQESVTEQDSKDSTYSLSSTLTLSKADYEKHKVYACEVTHQGLSSPVTKSFNRGEC	~1	binds	–	–	–	–	–
TIGIT-Fc-112-VH47 (bispecific antibody, human IgG1, kappa) heavy: not shown light: DIVMTQSPSSLSASVGDRVTITCKASQDVDTAVAWYQQKPGKAPKLLIYWASARHTGVPSRFSGSGSGTDFTFTISSLQPEDIATYYCQQYSNYPLTFGQGTKLEIKRTVAAPSVFIFPPSDEQLKSGTASVVCLLNNFYPREAKVQWKVDNALQSGNSQESVTEQDSKDSTYSLSSTLTLSKADYEKHKVYACEVTHQGLSSPVTKSFNRGEC	–	–	~0.4	~0.02	–	–	EC50 (read off the curve) [2]: ~0.01 nM
93-VH-6 (VHH, Humanized anti-PD-L1 single domain antibody; the assays imply a human Fc part that is not described; also called PD-L1 Ab (93-VH6); 93-VH6 sdAb) VHH: EVQLVESGGGLVQPGGSLRLSCAASGFTFTFRHYVMGWFRQAPGKEREFVAAISWSGSGSYYADSVKGRFTISRDNSKNTVYLQMNSLRAEDTAVYYCAADMTTRMSQASREYDYWGQGTLVTVSS	–	–	–	–	~0.4	~0.02	Kd (human PD-L1-his [5]): 2.06 nM; koff (human PD-L1-his [5]): 0.000197 s⁻¹; kon (human PD-L1-his [5]): 95900 M⁻¹ s⁻¹; Kd (human PD-L1-his [8]): 3.64 nM; koff (human PD-L1-his [8]): 0.000128 s⁻¹; kon (human PD-L1-his [8]): 35300 M⁻¹ s⁻¹; EC50 (read off the curve) (human PD-L1 on cells [9]): ~0.3 nM; EC50 (read off the curve) (human PD-L1-his [10]): ~1 nM
13H3-L-93VH6-IgG1 (bispecific antibody, Symmetric 'two to two' anti-CD47/PD-L1 bispecific) heavy: not shown light: DIVMTQSPDSLAVSLGERATINCKSSQSVLYAGNNRNYLAWYQQKPGQPPKLLINQASTRASGVPDRFSGSGSGTEFTLIISSLQAEDVAIYYCQQYYTPPLAFGGGTKLEIKGGGGSGGGGSGGGGSGGGGSEVQLVESGGGLVQPGGSLRLSCAASGFTFTFRHYVMGWFRQAPGKEREFVAAISWSGSGSYYADSVKGRFTISRDNSKNTVYLQMNSLRAEDTAVYYCAADMTTRMSQASREYDYWGQGTLVTVSSRTVAAPSVFIFPPSDEQLKSGTASVVCLLNNFYPREAKVQWKVDNALQSGNSQESVTEQDSKDSTYSLSSTLTLSKADYEKHKVYACEVTHQGLSSPVTKSFNRGEC	~1	binds	–	–	–	–	–
112-VH47 (VHH, Humanized anti-PD-L1 single domain antibody) VHH: EVQLVESGGGLVQPGGSLRLSCAASGFTFSSGTQFSDSKIDWYRQAPGKGLVWVAGIFSTGSTIYEDSVKGRFTISRDNAKNTGYLQMNSLRAEDTAVYYCRVIGRGILAWGQGTLVTVSS	–	–	~0.3	~0.009	~0.3	~0.009	–
